Laboratory results as given in US20260062456A1 (ALPINE IMMUNE SCIENCES, published 2026).

T1: human TIGIT stably expressed on Jurkat/IL-2 reporter cells (Jurkat/TIGIT cells) (human, UniProt Q495A1 22-244)
T1 sequence: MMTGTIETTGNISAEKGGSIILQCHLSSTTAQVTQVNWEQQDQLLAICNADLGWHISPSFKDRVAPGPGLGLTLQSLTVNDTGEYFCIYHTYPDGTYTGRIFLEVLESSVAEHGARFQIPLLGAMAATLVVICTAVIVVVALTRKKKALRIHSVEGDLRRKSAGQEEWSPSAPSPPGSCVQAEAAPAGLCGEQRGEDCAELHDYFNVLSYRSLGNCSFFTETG

T2: human TIGIT stably expressed on Jurkat/IL-2 reporter cells (Jurkat/TIGIT cells) (human, UniProt Q495A1 22-244)
T2 sequence (looked up): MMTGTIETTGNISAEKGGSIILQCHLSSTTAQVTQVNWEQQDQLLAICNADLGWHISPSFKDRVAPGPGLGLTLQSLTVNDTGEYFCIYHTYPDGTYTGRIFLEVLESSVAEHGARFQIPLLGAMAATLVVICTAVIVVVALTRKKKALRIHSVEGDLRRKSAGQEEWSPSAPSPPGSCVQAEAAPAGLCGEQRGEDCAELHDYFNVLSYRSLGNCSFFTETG


Assays:
[1] = molecular target: human PD-1 stably expressed on Jurkat/IL-2 reporter cells (Jurkat/PD-1 cells) (human, UniProt Q15116 21-288); assay: flow cytometry, Jurkat/PD-1 cells, 20 nM
[2] = molecular target: T1, human TIGIT stably expressed on …; assay: flow cytometry, Jurkat/TIGIT cells, 20 nM
[3] = molecular target: human PD-1 stably expressed on Jurkat/IL-2 reporter cells (Jurkat/PD-1 cells) (human, UniProt Q15116 25-288); assay: cell-based or functional assay
[4] = molecular target: T2, human TIGIT stably expressed on …; assay: cell-based or functional assay

Sequence of human PD-1 stably expressed on Jurkat/IL-2 reporter cells (Jurkat/PD-1 cells) (human, UniProt Q15116 21-288) (Q15116 21-288): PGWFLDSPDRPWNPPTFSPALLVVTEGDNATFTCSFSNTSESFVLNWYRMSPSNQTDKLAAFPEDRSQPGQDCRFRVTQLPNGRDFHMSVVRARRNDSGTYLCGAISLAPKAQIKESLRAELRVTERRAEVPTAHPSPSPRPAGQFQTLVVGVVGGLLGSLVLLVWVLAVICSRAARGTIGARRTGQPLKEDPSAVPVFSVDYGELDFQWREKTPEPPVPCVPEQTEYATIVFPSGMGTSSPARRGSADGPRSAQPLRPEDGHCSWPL
Sequence of human PD-1 stably expressed on Jurkat/IL-2 reporter cells (Jurkat/PD-1 cells) (human, UniProt Q15116 25-288) (Q15116 25-288): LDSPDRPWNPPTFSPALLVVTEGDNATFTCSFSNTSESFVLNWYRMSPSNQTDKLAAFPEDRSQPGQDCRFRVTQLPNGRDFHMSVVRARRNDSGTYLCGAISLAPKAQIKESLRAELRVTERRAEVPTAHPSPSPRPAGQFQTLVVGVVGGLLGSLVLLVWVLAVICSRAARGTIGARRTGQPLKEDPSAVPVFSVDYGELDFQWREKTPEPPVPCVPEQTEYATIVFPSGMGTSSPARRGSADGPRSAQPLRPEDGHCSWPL

Binder | MFI at 20 nM [1] [MFI] | MFI at 20 nM [2] [MFI] | Fold Increase Compared to non-stack variant CD155 IgV-Fc control [3] [fold] | Fold Increase Compared to non-stack variant PD-L1 IgV-Fc control [3] [fold] | Fold Increase Compared to variant PD-L1 IgV-Fc and variant CD155 IgV-Fc [3] [fold] | RLU [3] [RLU] | Fold Increase Compared to non-stack variant CD155 IgV-Fc control [4] [fold] | Fold Increase Compared to non-stack variant PD-L1 IgV-Fc control [4] [fold] | Fold Increase Compared to variant PD-L1 IgV-Fc and variant CD155 IgV-Fc [4] [fold] | RLU [4] [RLU]
Wild-type CD155-ECD-Fc (Fc fusion, not shown: a dimerising Fc or GST) WPPPGTGDVVVQAPTQVPGFLGDSVTLPCYLQVPNMEVTHVSQLTWARHGESGSMAVFHQTQGPSYSESKRLEFVAARLGAELRNASLRMFGLRVEDEGNYTCLFVTFPQGSRSVDIWLRVLAKPQNTAEVQKVQLTGEPVPMARCVSTGGRPPAQITWHSDLGGMPNTSQVPGFLSGTVTVTSLWILVPSSQVDGKNVTCKVEHESFEKPQLLTVNLTVYYPPEVSISGYDNNWYLGQNEATLTCDARSNPEPTGYNWSTTMGPLPPFAVAQGAQLLIRPVDKPINTTLICNVTNALGARQAELTVQVKEGPPSEHSGISRN | 511 |  |  |  |  |  |  |  |  | 
PD-L1/CD155 Stack 2 (Fc fusion) FTVTVPKDLYVVEYGSNMTIECKFPVEKQLDLAALIVYWEMEGKDIIQFVHGEEDQKAQHSSYRQRARLLKDQLSLGNAALQITDVKLQDAGVYRCMISYGGGADYKRITVKVNAGGGGSGGGGSEPKSSDKTHTCPPCPAPEAEGAPSVFLFPPKPKDTLMISRTPEVTCVVVDVSHEDPEVKFNWYVDGVEVHNAKTKPREEQYNSTYRVVSVLTVLHQDWLNGKEYKCKVSNKALPAPIEKTISKAKGQPREPQVYTLPPSRDELTKNQVSLTCLVKGFYPSDIAVEWESNGQPENNYKTTPPVLDSDGSFFLYSKLTVDKSRWQQGNVFSCSVMHEALHNHYTQKSLSLSPGKGGGGSGGGGSGGGGSWPPPGTGDVVVQAPTQVSGFLGDSVTLPCYLQVPNMEVTHVSQLTWARHGESGSMAVFHQTQGPWYAESKRLEFVAARLGAELRNASLRMFGLRVEDEGNYTCQFVTFPQRSRSVDIWLRVL | 69800 | 36500 |  |  |  |  |  |  |  | 
PD-L1/CD155 Stack 4: (PD-L1 IgV) (G4S)3 (CD155 IgV) (G4S)2 Fc (Fc fusion) FTVTVPKDLYVVEYGSNMTIECKFPVEKQLDLAALIVYWEMEGKDIIQFVHGEEDQKAQHSSYRQRARLLKDQLSLGNAALQITDVKLQDAGVYRCMISYGGGADYKRITVKVNAGGGGSGGGGSGGGGSWPPPGTGDVVVQAPTQVSGFLGDSVTLPCYLQVPNMEVTHVSQLTWARHGESGSMAVFHQTQGPWYAESKRLEFVAARLGAELRNASLRMFGLRVEDEGNYTCQFVTFPQRSRSVDIWLRVLGGGGSGGGGSEPKSSDKTHTCPPCPAPEAEGAPSVFLFPPKPKDTLMISRTPEVTCVVVDVSHEDPEVKFNWYVDGVEVHNAKTKPREEQYNSTYRVVSVLTVLHQDWLNGKEYKCKVSNKALPAPIEKTISKAKGQPREPQVYTLPPSRDELTKNQVSLTCLVKGFYPSDIAVEWESNGQPENNYKTTPPVLDSDGSFFLYSKLTVDKSRWQQGNVFSCSVMHEALHNHYTQKSLSLSPGK |  |  | 5.6 | 2 | 2.7 | 1920 | 5.6 | 2 | 2.7 | 1920
PD-L1/CD155 Stack 4 (Fc fusion) FTVTVPKDLYVVEYGSNMTIECKFPVEKQLDLAALIVYWEMEGKDIIQFVHGEEDQKAQHSSYRQRARLLKDQLSLGNAALQITDVKLQDAGVYRCMISYGGGADYKRITVKVNAGGGGSGGGGSGGGGSWPPPGTGDVVVQAPTQVSGFLGDSVTLPCYLQVPNMEVTHVSQLTWARHGESGSMAVFHQTQGPWYAESKRLEFVAARLGAELRNASLRMFGLRVEDEGNYTCQFVTFPQRSRSVDIWLRVLGGGGSGGGGSEPKSSDKTHTCPPCPAPEAEGAPSVFLFPPKPKDTLMISRTPEVTCVVVDVSHEDPEVKFNWYVDGVEVHNAKTKPREEQYNSTYRVVSVLTVLHQDWLNGKEYKCKVSNKALPAPIEKTISKAKGQPREPQVYTLPPSRDELTKNQVSLTCLVKGFYPSDIAVEWESNGQPENNYKTTPPVLDSDGSFFLYSKLTVDKSRWQQGNVFSCSVMHEALHNHYTQKSLSLSPGK | 78000 | 60500 |  |  |  |  |  |  |  | 
PD-L1/CD155 Stack 1 (Fc fusion) WPPPGTGDVVVQAPTQVSGFLGDSVTLPCYLQVPNMEVTHVSQLTWARHGESGSMAVFHQTQGPWYAESKRLEFVAARLGAELRNASLRMFGLRVEDEGNYTCQFVTFPQRSRSVDIWLRVLGGGGSGGGGSEPKSSDKTHTCPPCPAPEAEGAPSVFLFPPKPKDTLMISRTPEVTCVVVDVSHEDPEVKFNWYVDGVEVHNAKTKPREEQYNSTYRVVSVLTVLHQDWLNGKEYKCKVSNKALPAPIEKTISKAKGQPREPQVYTLPPSRDELTKNQVSLTCLVKGFYPSDIAVEWESNGQPENNYKTTPPVLDSDGSFFLYSKLTVDKSRWQQGNVFSCSVMHEALHNHYTQKSLSLSPGKGGGGSGGGGSGGGGSFTVTVPKDLYVVEYGSNMTIECKFPVEKQLDLAALIVYWEMEGKDIIQFVHGEEDQKAQHSSYRQRARLLKDQLSLGNAALQITDVKLQDAGVYRCMISYGGGADYKRITVKVNA | 61800 | 80700 |  |  |  |  |  |  |  | 
PD-L1/CD155 Stack 3: (CD155 IgV) (G4S)3 (PD-L1 IgV) (G4S)2 Fc (Fc fusion) WPPPGTGDVVVQAPTQVSGFLGDSVTLPCYLQVPNMEVTHVSQLTWARHGESGSMAVFHQTQGPWYAESKRLEFVAARLGAELRNASLRMFGLRVEDEGNYTCQFVTFPQRSRSVDIWLRVLGGGGSGGGGSGGGGSFTVTVPKDLYVVEYGSNMTIECKFPVEKQLDLAALIVYWEMEGKDIIQFVHGEEDQKAQHSSYRQRARLLKDQLSLGNAALQITDVKLQDAGVYRCMISYGGGADYKRITVKVNAGGGGSGGGGSEPKSSDKTHTCPPCPAPEAEGAPSVFLFPPKPKDTLMISRTPEVTCVVVDVSHEDPEVKFNWYVDGVEVHNAKTKPREEQYNSTYRVVSVLTVLHQDWLNGKEYKCKVSNKALPAPIEKTISKAKGQPREPQVYTLPPSRDELTKNQVSLTCLVKGFYPSDIAVEWESNGQPENNYKTTPPVLDSDGSFFLYSKLTVDKSRWQQGNVFSCSVMHEALHNHYTQKSLSLSPGK |  |  | 1.3 | 0.5 | 0.6 | 434 | 1.3 | 0.5 | 0.6 | 434
PD-L1/CD155 Stack 3 (Fc fusion) WPPPGTGDVVVQAPTQVSGFLGDSVTLPCYLQVPNMEVTHVSQLTWARHGESGSMAVFHQTQGPWYAESKRLEFVAARLGAELRNASLRMFGLRVEDEGNYTCQFVTFPQRSRSVDIWLRVLGGGGSGGGGSGGGGSFTVTVPKDLYVVEYGSNMTIECKFPVEKQLDLAALIVYWEMEGKDIIQFVHGEEDQKAQHSSYRQRARLLKDQLSLGNAALQITDVKLQDAGVYRCMISYGGGADYKRITVKVNAGGGGSGGGGSEPKSSDKTHTCPPCPAPEAEGAPSVFLFPPKPKDTLMISRTPEVTCVVVDVSHEDPEVKFNWYVDGVEVHNAKTKPREEQYNSTYRVVSVLTVLHQDWLNGKEYKCKVSNKALPAPIEKTISKAKGQPREPQVYTLPPSRDELTKNQVSLTCLVKGFYPSDIAVEWESNGQPENNYKTTPPVLDSDGSFFLYSKLTVDKSRWQQGNVFSCSVMHEALHNHYTQKSLSLSPGK | 47300 | 81800 |  |  |  |  |  |  |  | 
